# Assay results published in PMC4121237, “Engineering Neprilysin Activity and Specificity to Create a Novel Therapeutic for Alzheimer’s Disease” (PLoS ONE, 2014).
# B1: wild-type NEP: soluble extracellular domain (amino acids 52–749) of wild type human NEP (neprilysin), tagged, recombinantly expressed (protein, UniProt P08473 52-749, looked up, fragment)
# chain: YDDGICKSSDCIKSAARLIQNMDATTEPCTDFFKYACGGWLKRNVIPETSSRYGNFDILRDELEVVLKDVLQEPKTEDIVAVQKAKALYRSCINESAIDSRGGEPLLKLLPDIYGWPVATENWEQKYGASWTAEKAIAQLNSKYGKKVLINLFVGTDDKNSVNHVIHIDQPRLGLPSRDYYECTGIYKEACTAYVDFMISVARLIRQEERLPIDENQLALEMNKVMELEKEIANATAKPEDRNDPMLLYNKMTLAQIQNNFSLEINGKPFSWLNFTNEIMSTVNISITNEEDVVVYAPEYLTKLKPILTKYSARDLQNLMSWRFIMDLVSSLSRTYKESRNAFRKALYGTTSETATWRRCANYVNGNMENAVGRLYVEAAFAGESKHVVEDLIAQIREVFIQTLDDLTWMDAETKKRAEEKALAIKERIGYPDDIVSNDNKLNNEYLELNYKEDEYFENIIQNLKFSQSKQLKKLREKVDKDEWISGAAVVNAFYSSGRNQIVFPAGILQPPFFSAQQSNSLNYGGIGMVIGHEITHGFDDNGRNFNKDGDLVDWWTQQSASNFKEQSQCMVYQYGNFSWDLAGGQHLNGINTLGENIADNGGLGQAYRAYQNYIKKNGEEKLLPGLDLNHKQLFFLNFAQVWCGTYRPEYAVNSIKTDVHSPGNFRIIGTLQNSAEFSEAFHCRKNSYMNPEKKCRV
# modifications: extracellular domain tag
# notes: soluble extracellular domain (amino acids 52–749) of wild type human NEP (neprilysin), tagged, recombinantly expressed
# Experiments:
# [1] = molecular target: NEP G714K (Homo sapiens, UniProt P08473, G715K); experiment: biochemical
# Sequence of NEP G714K (P08473 53-750 G715K): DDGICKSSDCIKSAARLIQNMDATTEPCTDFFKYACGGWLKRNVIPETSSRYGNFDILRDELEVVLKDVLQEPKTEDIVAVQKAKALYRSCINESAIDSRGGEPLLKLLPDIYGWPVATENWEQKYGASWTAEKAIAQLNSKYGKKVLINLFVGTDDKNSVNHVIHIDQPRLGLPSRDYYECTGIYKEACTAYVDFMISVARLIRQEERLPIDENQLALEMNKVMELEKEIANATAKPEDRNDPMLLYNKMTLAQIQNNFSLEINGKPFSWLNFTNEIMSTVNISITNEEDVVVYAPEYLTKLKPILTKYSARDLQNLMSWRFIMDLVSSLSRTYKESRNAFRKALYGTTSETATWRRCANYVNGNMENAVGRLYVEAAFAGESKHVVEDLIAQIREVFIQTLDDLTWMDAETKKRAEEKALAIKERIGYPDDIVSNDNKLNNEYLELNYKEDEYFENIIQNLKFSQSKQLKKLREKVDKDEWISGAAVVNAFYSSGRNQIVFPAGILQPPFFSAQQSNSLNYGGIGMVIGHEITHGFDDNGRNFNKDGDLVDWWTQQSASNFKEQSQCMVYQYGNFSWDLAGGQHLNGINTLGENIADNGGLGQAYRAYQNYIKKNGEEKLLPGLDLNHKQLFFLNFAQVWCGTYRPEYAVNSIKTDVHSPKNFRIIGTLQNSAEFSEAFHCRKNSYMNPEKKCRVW
# Protocol: (§1) The effect of inhibitors on NEP activity was determined using the above fluorescence polarisation assay to measure the rate of Aβ1–40 cleavage with a substrate concentration of 10 µM, an enzyme concentration of 20 nM and inhibitor concentrations in the range 2 nM to 100 µM.
# [2] = molecular target: NEP G399V (Homo sapiens, UniProt P08473, G400V); experiment: biochemical
# Sequence of NEP G399V (P08473 53-750 G400V): as the sequence (P08473 53-750 G715K) above, with G348V, K663G counted along it
# Protocol: as §1
# [3] = molecular target: T1, NEPv (NEP G399V/G714K) (Homo sapiens, UniProt P08473, G400V/G715K); experiment: Inhibition of Aβ1–40 cleavage activity, fluorescence polarisation; assay type: biochemical
# T1 construct: DNA encoding amino acids 52–749 of human NEP variants was amplified by PCR; made in house; host or cells: CHO suspension cells (transient, secreted)
# T1 sequence (P08473 53-750 G400V/G715K): as the sequence (P08473 53-750 G715K) above, with G348V counted along it
# Protocol: as §1
# [4] = molecular target: T2, wild-type NEP (Homo sapiens, UniProt P08473); experiment: as above; assay type: biochemical; details: enzyme wild-type NEP 20 nM; Aβ1–40 substrate 10 µM
# T2 construct: DNA encoding amino acids 52–749 of human NEP variants was amplified by PCR; made in house; host or cells: CHO suspension cells (transient, secreted)
# T2 sequence (P08473 53-750): as the sequence (P08473 53-750 G715K) above, with K663G counted along it
# Protocol: as §1
# [5] = molecular target: T3, Aβ1–42 (Homo sapiens, UniProt P05067); experiment: Endpoint degradation assay with ELISA read-out; assay type: biochemical; details: 1 hour at room temperature; Aβ42 ELISA
# T3 construct: Aβ 1-42^a
# T3 sequence (P05067 672-713): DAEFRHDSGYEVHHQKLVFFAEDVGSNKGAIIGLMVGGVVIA
# Protocol: (§2) Supplementary file pone.0104001.s001.tif: Figure S1 Degradation of Aβ1–40 and Aβ1–42 by NEP wild-type and NEPv. Measurement of the degredation of Aβ1–40 (A) and Aβ1–42 (B) was performed by incubating peptide and either wild-type NEP (▪) or NEPv (Δ) for 1 hour at room temperature. The reaction was stopped by the addition of 1.10-phenanthroline to a final concentration of 10 µM. 50 µl (Aβ40 analysis) or 100 µl (Aβ42 analysis) of the reaction mix was transferred to an ELISA plate. Aβ40 and Aβ42 concentrations after degradation were determined using Invitrogen human Aβ40 ELISA kit (Invitrogen, California, US), and Innotest β-amyloid RUO (1–42) ELISA (Innogenetics, Gent, Belgium). […] (TIF) Click here for additional data file.
# [6] = tested on: Somatostatin 14; experiment: Steady-state kinetics of peptide cleavage, fluorescence polarisation; assay type: biochemical; details: substrate Somatostatin 14; 37°C, pH 7.4
# Protocol: (§3) For detailed kinetic characterisation of peptide cleavage by NEP, a similar assay to that above was used with modifications based on a published method. Peptides were synthesised by Bachem using 9-fluorenylmethyloxycarbonyl solid-phase peptide synthesis and were labelled with a N-terminal 5(6)FAM via a ε-aminocaproic acid linker and a C-terminal biotin via a lysine linker (Table S1). Purified peptides were supplied as trifluoroacetate salts with a purity ≥95%. The assay was performed in a 96-well microtitre plate and contained 50 mM HEPES (pH 7.4), 100 mM NaCl, 0.05% (w/v) BSA (Buffer A), 1–200 µM peptide substrate and 1–500 nM NEP protein. Reactions were incubated at 37°C before being stopped at various time points between 2 and 360 min by transferring 5 µL aliquots to 245 µL Buffer A containing 2 mM 1,10-phenanethroline (Sigma) and 2 µM avidin (Invitrogen). For peptide substrates containing disulphide bonds, 1 mM tris(2-carboxyethyl)phosphine (Thermo Scientific) was added to the stop solution. The fluorescence polarisation of the resulting solution was measured on a Victor plate reader and the amount of substrate cleaved was determined with reference to substrate-only controls with and without avidin. Initial rates were obtained by linear regression of the linear regions of time courses. Enzyme velocity was plotted as a function of substrate concentration and the Michaelis-Menten equation was used to fit the data, giving the parameters kcat and KM.
# [7] = tested on: Nociceptin; experiment: as above; assay type: biochemical; details: substrate Nociceptin; 37°C, pH 7.4
# Protocol: as §3
# [8] = tested on: Glucagon; experiment: as above; assay type: biochemical; details: substrate Glucagon; 37°C, pH 7.4
# Protocol: as §3
# [9] = tested on: Bradykinin; experiment: as above; assay type: biochemical; details: substrate Bradykinin; 37°C, pH 7.4
# Protocol: as §3
# [10] = tested on: Aβ1–40; experiment: as above; assay type: biochemical; details: substrate Aβ 1–40; 37°C, pH 7.4
# Protocol: as §3
# [11] = tested on: α-endorphin; experiment: as above; assay type: biochemical; details: substrate α-endorphin; 37°C, pH 7.4
# Protocol: as §3
# [12] = tested on: Neurokinin A; experiment: as above; assay type: biochemical; details: substrate Neurokinin A; 37°C, pH 7.4
# Protocol: as §3
# [13] = tested on: γ-endorphin; experiment: as above; assay type: biochemical; details: substrate γ-endorphin; 37°C, pH 7.4
# Protocol: as §3
# [14] = tested on: Neurotensin; experiment: as above; assay type: biochemical; details: substrate Neurotensin; 37°C, pH 7.4
# Protocol: as §3
# [15] = tested on: Substance P; experiment: as above; assay type: biochemical; details: substrate Substance P; 37°C, pH 7.4
# Protocol: as §3
# [16] = tested on: Angiotensin; experiment: as above; assay type: biochemical; details: substrate Angiotensin; 37°C, pH 7.4
# Protocol: as §3
# [17] = tested on: ANP; experiment: as above; assay type: biochemical; details: substrate ANP; 37°C, pH 7.4
# Protocol: as §3
# [18] = tested on: GLP-1; experiment: as above; assay type: biochemical; details: substrate GLP-1; 37°C, pH 7.4
# Protocol: as §3
# [19] = tested on: Arg-vasopressin; experiment: as above; assay type: biochemical; details: substrate Arg-vasopressin; 37°C, pH 7.4
# Protocol: as §3
# [20] = tested on: GRP; experiment: as above; assay type: biochemical; details: substrate GRP; 37°C, pH 7.4
# Protocol: as §3
# [21] = tested on: Neurokinin B; experiment: as above; assay type: biochemical; details: substrate Neurokinin B; 37°C, pH 7.4
# Protocol: as §3
# [22] = tested on: Endothelin-1; experiment: Steady-state kinetics of endothelin-1 cleavage, stopped assay with RP-HPLC; assay type: biochemical; details: substrate Endothelin-1 (unlabelled); RP-HPLC, 10 min at 37°C
# Protocol: Kinetic parameters for cleavage of endothelin-1 by NEP were determined using a stopped assay in which the amount of substrate cleaved was measured using reversed-phase HPLC (RP-HPLC). Endothelin-1 was incubated at 12.5–200 µM in the presence of wild type NEP or NEPv and reactions were stopped after 10 min at 37°C by the addition of an equal volume of 1∶1∶1 water:acetonitrile:TFA containing 2 mM tris(2-carboxyethyl)phosphine (Thermo Scientific). RP-HPLC spectra were recorded using an Agilent 1260 Infinity system. Injections of 20 µL were made for each sample and analytes were separated by elution on an Agilent Polaris C8-A stationary phase column (4.6×100 mm, 3 µm) at 1.5 mL min^−1 using a linear binary gradient of 10–90% acetonitrile in water with 0.1% (v/v) TFA over 15 minutes at 40°C. Signal intensity for intact endothelin-1 was monitored at 210 nm and relative peak area was determined by manual integration of the baseline. Kinetic parameters were derived from the activity data as described above.
# [23] = tested on: Aβ1–40; experiment: Endpoint degradation assay with ELISA read-out; assay type: biochemical, human; details: 1 hour at room temperature; Aβ40 ELISA
# Protocol: as §2
molecule,measurement,setting,value
"CC(C)C[C@H](NP(=O)(O)O[C@@H]1O[C@@H](C)[C@H](O)[C@@H](O)[C@H]1O)C(=O)N[C@@H](Cc1c[nH]c2ccccc12)C(=O)O [Phosphoramidon, phosphoramidon]",IC50,[1],0.1 µM
same,IC50,[2],0.61 µM
same,potency lower on NEPv than for wild-type NEP,[3]; NEPv versus wild-type NEP,> 2000 fold
same,IC50,"[3]; enzyme NEPv 20 nM, Aβ1–40 substrate 10 µM",21 µM
same,IC50,[4],< 0.01 µM
B1,EC50,[5],0.144 µM
same,Km,[6],7.4 ± 0.9 µM
same,kcat,[6],32 ± 1 s⁻¹
same,Km,[7],20 ± 1 µM
same,kcat,[7],11 ± 0.3 s⁻¹
same,Km,[8],25 ± 5 µM
same,kcat,[8],4.5 ± 0.4 s⁻¹
same,Km,[9],32 ± 5 µM
same,kcat,[9],16 ± 1 s⁻¹
same,Km,[10],104 ± 20 µM
same,kcat,[10],0.83 ± 0.1 s⁻¹
same,Km,[11],24 ± 0.5 µM
same,kcat,[11],8.9 ± 0.08 s⁻¹
same,Km,[12],9.3 ± 1 µM
same,kcat,[12],17 ± 0.7 s⁻¹
same,Km,[13],13 ± 1 µM
same,kcat,[13],4.8 ± 0.2 s⁻¹
same,Km,[14],16 ± 2 µM
same,kcat,[14],13 ± 0.6 s⁻¹
same,Km,[15],16 ± 1 µM
same,kcat,[15],18 ± 0.6 s⁻¹
same,Km,[16],8.6 ± 0.9 µM
same,kcat,[16],8.2 ± 0.3 s⁻¹
same,Km,[17],8.4 ± 0.8 µM
same,kcat,[17],7.1 ± 0.2 s⁻¹
same,Km,[18],24 ± 4 µM
same,kcat,[18],3.3 ± 0.3 s⁻¹
same,Km,[19],6.2 ± 1 µM
same,kcat,[19],2.8 ± 0.2 s⁻¹
same,Km,[20],150 ± 30 µM
same,kcat,[20],26 ± 4 s⁻¹
same,Km,[21],22 ± 2 µM
same,kcat,[21],20 ± 0.8 s⁻¹
same,Km,[22],53 ± 10 µM
same,kcat,[22],0.68 ± 0.06 s⁻¹
same,EC50,[23],0.243 µM
